Consider one molecule from US20180230236A1.

Assay [1] deals with canine IgE (canine monoclonal IgE from mouse x dog heterohybridoma cell line 2.39) (canine). Nature of the assay: affinity estimated from titration to end signal on IgE coated ELISA microtiter plates.
Assay [2] shares this target. Nature of the assay: flow cytometry; displacement of APC-canine IgE from FcεRI on C2 cells by chimera supernatant.
Assay [3] shares this target. In words: flow cytometry; C2 cells loaded with APC-canine IgE, then supernatant of chimera-transfected HEK 293 for 60 min at room temperature; displacement of IgE from FcεRI. A general note: A flow cytometer gives signals particle by particle.

canine IgE (canine monoclonal IgE from mouse x dog heterohybridoma cell line 2.39) (canine), sequence (P25054 whole entry): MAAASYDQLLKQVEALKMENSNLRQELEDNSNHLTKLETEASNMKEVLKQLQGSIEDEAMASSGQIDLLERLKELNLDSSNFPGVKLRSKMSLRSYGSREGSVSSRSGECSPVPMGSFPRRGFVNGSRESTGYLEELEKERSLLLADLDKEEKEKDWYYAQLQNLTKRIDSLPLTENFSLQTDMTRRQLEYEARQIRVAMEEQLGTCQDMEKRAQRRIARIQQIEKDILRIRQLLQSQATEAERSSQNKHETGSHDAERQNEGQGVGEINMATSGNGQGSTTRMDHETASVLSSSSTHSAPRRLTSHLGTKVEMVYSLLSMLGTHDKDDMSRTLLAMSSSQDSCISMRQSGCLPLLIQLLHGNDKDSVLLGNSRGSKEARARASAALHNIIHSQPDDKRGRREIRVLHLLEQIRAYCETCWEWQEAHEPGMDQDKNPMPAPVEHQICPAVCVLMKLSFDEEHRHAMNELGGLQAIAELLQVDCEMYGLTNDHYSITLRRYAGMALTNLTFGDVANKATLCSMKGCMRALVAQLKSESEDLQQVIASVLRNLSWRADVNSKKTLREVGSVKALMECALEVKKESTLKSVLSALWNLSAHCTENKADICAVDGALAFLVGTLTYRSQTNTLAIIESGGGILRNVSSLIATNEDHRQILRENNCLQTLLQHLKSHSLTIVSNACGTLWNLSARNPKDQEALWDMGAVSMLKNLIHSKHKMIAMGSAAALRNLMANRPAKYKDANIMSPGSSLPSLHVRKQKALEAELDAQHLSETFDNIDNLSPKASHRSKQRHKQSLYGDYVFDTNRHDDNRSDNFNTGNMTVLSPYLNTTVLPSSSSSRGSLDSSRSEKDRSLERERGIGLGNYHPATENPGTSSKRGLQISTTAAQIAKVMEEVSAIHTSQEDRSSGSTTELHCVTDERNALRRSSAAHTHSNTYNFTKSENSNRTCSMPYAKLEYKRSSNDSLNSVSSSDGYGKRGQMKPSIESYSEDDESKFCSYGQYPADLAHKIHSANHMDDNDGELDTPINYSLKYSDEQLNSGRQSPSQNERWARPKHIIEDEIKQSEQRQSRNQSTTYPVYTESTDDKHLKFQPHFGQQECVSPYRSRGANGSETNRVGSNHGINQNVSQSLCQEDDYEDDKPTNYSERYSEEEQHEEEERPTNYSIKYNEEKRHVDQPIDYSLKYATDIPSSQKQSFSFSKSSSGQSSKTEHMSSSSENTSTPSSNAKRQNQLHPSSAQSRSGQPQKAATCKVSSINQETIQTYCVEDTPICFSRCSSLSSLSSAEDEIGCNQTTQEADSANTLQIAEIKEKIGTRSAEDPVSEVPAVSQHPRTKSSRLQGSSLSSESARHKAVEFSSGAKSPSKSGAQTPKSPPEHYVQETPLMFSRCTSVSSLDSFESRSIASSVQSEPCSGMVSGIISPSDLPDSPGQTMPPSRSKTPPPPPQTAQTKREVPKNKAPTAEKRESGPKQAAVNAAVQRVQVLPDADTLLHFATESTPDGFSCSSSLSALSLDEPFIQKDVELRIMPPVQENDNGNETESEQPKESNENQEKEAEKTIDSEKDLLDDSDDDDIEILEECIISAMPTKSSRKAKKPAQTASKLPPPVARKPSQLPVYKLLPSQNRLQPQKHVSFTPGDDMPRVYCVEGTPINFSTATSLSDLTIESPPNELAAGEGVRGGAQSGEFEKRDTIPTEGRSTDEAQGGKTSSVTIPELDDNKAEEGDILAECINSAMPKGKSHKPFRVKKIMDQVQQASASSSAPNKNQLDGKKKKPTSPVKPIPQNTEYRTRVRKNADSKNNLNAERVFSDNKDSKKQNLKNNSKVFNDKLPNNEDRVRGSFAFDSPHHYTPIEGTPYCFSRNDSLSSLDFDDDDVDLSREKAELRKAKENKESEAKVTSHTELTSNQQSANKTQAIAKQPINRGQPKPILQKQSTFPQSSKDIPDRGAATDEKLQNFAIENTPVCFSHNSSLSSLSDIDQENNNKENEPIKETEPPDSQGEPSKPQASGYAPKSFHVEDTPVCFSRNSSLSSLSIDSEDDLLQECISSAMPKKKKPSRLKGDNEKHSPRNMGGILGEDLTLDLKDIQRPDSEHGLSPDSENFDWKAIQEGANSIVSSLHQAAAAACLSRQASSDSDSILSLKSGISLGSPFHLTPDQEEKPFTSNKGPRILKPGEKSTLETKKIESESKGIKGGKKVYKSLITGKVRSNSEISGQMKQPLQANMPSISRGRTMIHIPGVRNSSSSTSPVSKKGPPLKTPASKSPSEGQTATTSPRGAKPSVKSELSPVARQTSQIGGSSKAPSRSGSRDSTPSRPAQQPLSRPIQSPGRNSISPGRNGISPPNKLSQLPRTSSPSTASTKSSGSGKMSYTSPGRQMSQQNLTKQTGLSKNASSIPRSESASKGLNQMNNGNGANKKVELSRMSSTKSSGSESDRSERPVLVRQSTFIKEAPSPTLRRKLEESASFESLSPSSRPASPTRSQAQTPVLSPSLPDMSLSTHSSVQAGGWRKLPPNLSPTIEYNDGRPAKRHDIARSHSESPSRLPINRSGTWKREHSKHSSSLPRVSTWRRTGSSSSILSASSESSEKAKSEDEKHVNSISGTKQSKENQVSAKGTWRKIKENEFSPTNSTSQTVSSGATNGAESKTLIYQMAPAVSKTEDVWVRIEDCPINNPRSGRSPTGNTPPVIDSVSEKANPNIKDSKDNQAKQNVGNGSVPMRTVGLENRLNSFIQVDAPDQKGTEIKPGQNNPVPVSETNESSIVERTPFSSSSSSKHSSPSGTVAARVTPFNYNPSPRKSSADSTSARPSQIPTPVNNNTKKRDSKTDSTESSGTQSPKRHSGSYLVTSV

B1: chimera of canine FcεRI alpha chain x scFv-5.91 (protein)
chain: DTLKPTVSMNPPWNTILKDDSVTLTCTGNNSLEVDSAVWLHNNTTLQETTSRLDINKAQIQDSGEYRCRENRSILSDPVYLTVFTEWLILQASANVVMEGESFLIRCHSWKNLRLTKVTYYKDGIPIRYWYENFNISISNVTTKNSGNYSCSGQIQQKGYTSKVLNIIVKKEPTKQNKYSGLQGGGGSGGGGSGGGGSEVQLQQSGPELVKPGASMKISCKASGYSITGYTIHWVKQSHGKNLEWIGLINPYTGGITYNQNFKGKATLTVDKSSSTAYMELLSLTSEDSAVYYCSRGPYGNFYAMDYWGQGTSVTVSSGGGGSGGGGSGGGGSDIQMTQSPASLSASVGETVTITCRASGNIHNYLAWYQQKQGKSPQLLVYNAKTLADSVPSRFSGSGSGTQFSLKINSLQPEDFGSYYCQHFWSTPYTFGGGTKLEIKRA
As to B1, the affinity in assay [1] was 100 pM. In assay [2], the loss of mast cells carrying IgE is more than 50%. Also, the % cells with label (after chimera supernatant) in assay [3] was determined as 4.11%.
